Results taken from patent publication US20070190061A1.

B1: peptide PMK2-23H3 (anti-id mAb MK2-23 H3-derived peptide) (peptide)
peptide: ARSNYVGYHVRWYFD
B2: peptide PHMW-MAA.D2.7 (HMW-MAA-derived peptide) (peptide)
peptide: IRSGDEVHYHVTAGPRW

Molecular target: HMW-MAA-specific idiotypic mAb 763.74
Experiment: peptide concentration giving 50% inhibition of biotinylated mAb 763.74 binding to Colo38 cells, cell ELISA

Row | Binder | IC50 [µM]
1 | B1 | 0.871
2 | B2 | 0.9
